Assay results as given in PMC8548206, “Single-domain antibody screening by isPLA-seq” (Life Science Alliance, 2021).

B1: anti-SQSTM1 sdAb #25 (Flag-tagged, sdAb library) (VHH)
VHH: QVQLVESGGGSVQAGGSLRLSCTASGGSEYSYSTFSLGWFRQAPGQEREAVAAIASMGGLTYYADSVKGRFTISRDNAKNTVTLQMNNLKPEDTAIYYCAAPGDGQEVIFAFVQRSTRAWPVWGQGTQVTVSS
notes: 21-aa CDR3 in place of the CDR3 of cAbBCII10; source: HEK293T, transfected (sdAb library in pcDNA3.1), in fixed cells; not shown: 3x Flag, C-terminal, kept
B2: anti-SQSTM1 sdAb #27 (Flag-tagged, sdAb library) (VHH)
VHH: QVQLVESGGGSVQAGGSLRLSCTASGGSEYSYSTFSLGWFRQAPGQEREAVAAIASMGGLTYYADSVKGRFTISRDNAKNTVTLQMNNLKPEDTAIYYCAAIIAELCSGLPCTSFLRTPCPVWGQGTQVTVSS
notes: as for B1
B3: anti-SQSTM1 sdAb #18 (Flag-tagged, sdAb library) (VHH)
VHH: QVQLVESGGGSVQAGGSLRLSCTASGGSEYSYSTFSLGWFRQAPGQEREAVAAIASMGGLTYYADSVKGRFTISRDNAKNTVTLQMNNLKPEDTAIYYCAAGIGYAGDCRAHTIATRRFSVGWGQGTQVTVSS
notes: as for B1
B4: anti-SQSTM1 sdAb #3 (Flag-tagged, sdAb library) (VHH)
VHH: QVQLVESGGGSVQAGGSLRLSCTASGGSEYSYSTFSLGWFRQAPGQEREAVAAIASMGGLTYYADSVKGRFTISRDNAKNTVTLQMNNLKPEDTAIYYCAARVRTSPRSAVADGSAYRSESAWGQGTQVTVSS
notes: as for B1
B5: anti-SQSTM1 sdAb #6 (Flag-tagged, sdAb library) (VHH)
VHH: QVQLVESGGGSVQAGGSLRLSCTASGGSEYSYSTFSLGWFRQAPGQEREAVAAIASMGGLTYYADSVKGRFTISRDNAKNTVTLQMNNLKPEDTAIYYCAALLVIDSSVIARLDGRGRSDRLWGQGTQVTVSS
notes: as for B1
B6: anti-SQSTM1 sdAb #13 (Flag-tagged, sdAb library) (VHH)
VHH: QVQLVESGGGSVQAGGSLRLSCTASGGSEYSYSTFSLGWFRQAPGQEREAVAAIASMGGLTYYADSVKGRFTISRDNAKNTVTLQMNNLKPEDTAIYYCAAREPFARYLRKESYPLFRMYSFWGQGTQVTVSS
notes: as for B1
B7: anti-SQSTM1 sdAb #4 (Flag-tagged, sdAb library) (VHH)
VHH: QVQLVESGGGSVQAGGSLRLSCTASGGSEYSYSTFSLGWFRQAPGQEREAVAAIASMGGLTYYADSVKGRFTISRDNAKNTVTLQMNNLKPEDTAIYYCAAAYGNDVQSVAFKYVVGRGYQLWGQGTQVTVSS
notes: as for B1
B8: anti-SQSTM1 sdAb #12 (Flag-tagged, sdAb library) (VHH)
VHH: QVQLVESGGGSVQAGGSLRLSCTASGGSEYSYSTFSLGWFRQAPGQEREAVAAIASMGGLTYYADSVKGRFTISRDNAKNTVTLQMNNLKPEDTAIYYCAADQVRDHSWCNLFRTLRVCVLIWGQGTQVTVSS
notes: as for B1
B9: anti-SQSTM1 sdAb #10 (Flag-tagged, sdAb library) (VHH)
VHH: QVQLVESGGGSVQAGGSLRLSCTASGGSEYSYSTFSLGWFRQAPGQEREAVAAIASMGGLTYYADSVKGRFTISRDNAKNTVTLQMNNLKPEDTAIYYCAAVLHVLSWDRCEYDPAHDLRTAWGQGTQVTVSS
notes: as for B1
B10: anti-SQSTM1 sdAb #5 (Flag-tagged, sdAb library) (VHH)
VHH: QVQLVESGGGSVQAGGSLRLSCTASGGSEYSYSTFSLGWFRQAPGQEREAVAAIASMGGLTYYADSVKGRFTISRDNAKNTVTLQMNNLKPEDTAIYYCAAYDRVGGGHVLIACYSDDLCMGWGQGTQVTVSS
notes: as for B1
B11: anti-SQSTM1 sdAb #14 (Flag-tagged, sdAb library) (VHH)
VHH: QVQLVESGGGSVQAGGSLRLSCTASGGSEYSYSTFSLGWFRQAPGQEREAVAAIASMGGLTYYADSVKGRFTISRDNAKNTVTLQMNNLKPEDTAIYYCAAGGNTVKVSNIFEVSSSVRVRLWGQGTQVTVSS
notes: as for B1
B12: anti-SQSTM1 sdAb #19 (Flag-tagged, sdAb library) (VHH)
VHH: QVQLVESGGGSVQAGGSLRLSCTASGGSEYSYSTFSLGWFRQAPGQEREAVAAIASMGGLTYYADSVKGRFTISRDNAKNTVTLQMNNLKPEDTAIYYCAARQAPFGSRCSISSSPKGRYPSWGQGTQVTVSS
notes: as for B1
B13: anti-SQSTM1 sdAb #21 (Flag-tagged, sdAb library) (VHH)
VHH: QVQLVESGGGSVQAGGSLRLSCTASGGSEYSYSTFSLGWFRQAPGQEREAVAAIASMGGLTYYADSVKGRFTISRDNAKNTVTLQMNNLKPEDTAIYYCAADLWAPLMVCSGGLTQMLSNSDWGQGTQVTVSS
notes: as for B1
B14: anti-SQSTM1 sdAb #24 (Flag-tagged, sdAb library) (VHH)
VHH: QVQLVESGGGSVQAGGSLRLSCTASGGSEYSYSTFSLGWFRQAPGQEREAVAAIASMGGLTYYADSVKGRFTISRDNAKNTVTLQMNNLKPEDTAIYYCAAVRTPVILRCFQSGIFYLVGEVWGQGTQVTVSS
notes: as for B1
B15: anti-SQSTM1 sdAb #20 (Flag-tagged, sdAb library) (VHH)
VHH: QVQLVESGGGSVQAGGSLRLSCTASGGSEYSYSTFSLGWFRQAPGQEREAVAAIASMGGLTYYADSVKGRFTISRDNAKNTVTLQMNNLKPEDTAIYYCAAPGHGRPWRAATFPVDEGGGSAWGQGTQVTVSS
notes: as for B1
B16: anti-SQSTM1 sdAb #17 (Flag-tagged, sdAb library) (VHH)
VHH: QVQLVESGGGSVQAGGSLRLSCTASGGSEYSYSTFSLGWFRQAPGQEREAVAAIASMGGLTYYADSVKGRFTISRDNAKNTVTLQMNNLKPEDTAIYYCAAAVESCDGFRTGRTVPYREVTYWGQGTQVTVSS
notes: as for B1
B17: anti-SQSTM1 sdAb #11 (Flag-tagged, sdAb library) (VHH)
VHH: QVQLVESGGGSVQAGGSLRLSCTASGGSEYSYSTFSLGWFRQAPGQEREAVAAIASMGGLTYYADSVKGRFTISRDNAKNTVTLQMNNLKPEDTAIYYCAAARAHFASLCDCQGNRITLLCDWGQGTQVTVSS
notes: as for B1
B18: anti-SQSTM1 sdAb #22 (Flag-tagged, sdAb library) (VHH)
VHH: QVQLVESGGGSVQAGGSLRLSCTASGGSEYSYSTFSLGWFRQAPGQEREAVAAIASMGGLTYYADSVKGRFTISRDNAKNTVTLQMNNLKPEDTAIYYCAAACELDAVRLWPDFVRPAVFSIWGQGTQVTVSS
notes: as for B1
B19: anti-SQSTM1 sdAb #15 (Flag-tagged, sdAb library) (VHH)
VHH: QVQLVESGGGSVQAGGSLRLSCTASGGSEYSYSTFSLGWFRQAPGQEREAVAAIASMGGLTYYADSVKGRFTISRDNAKNTVTLQMNNLKPEDTAIYYCAALRWSWFPSGSTANLSLGIGCTWGQGTQVTVSS
notes: as for B1
B20: anti-SQSTM1 sdAb #2 (Flag-tagged, sdAb library) (VHH)
VHH: QVQLVESGGGSVQAGGSLRLSCTASGGSEYSYSTFSLGWFRQAPGQEREAVAAIASMGGLTYYADSVKGRFTISRDNAKNTVTLQMNNLKPEDTAIYYCAARAGVCGVVGSFSMYTIGNWVYWGQGTQVTVSS
notes: 21-aa CDR3 in place of the CDR3 of cAbBCII10; also called clone #2; source: HEK293T, transfected (sdAb library in pcDNA3.1), in fixed cells; not shown: 3x Flag, C-terminal, kept
B21: anti-SQSTM1 sdAb #16 (Flag-tagged, sdAb library) (VHH)
VHH: QVQLVESGGGSVQAGGSLRLSCTASGGSEYSYSTFSLGWFRQAPGQEREAVAAIASMGGLTYYADSVKGRFTISRDNAKNTVTLQMNNLKPEDTAIYYCAANMAIRVRWVAMFTCGPIGGVGWGQGTQVTVSS
notes: as for B1
B22: anti-SQSTM1 sdAb #23 (Flag-tagged, sdAb library) (VHH)
VHH: QVQLVESGGGSVQAGGSLRLSCTASGGSEYSYSTFSLGWFRQAPGQEREAVAAIASMGGLTYYADSVKGRFTISRDNAKNTVTLQMNNLKPEDTAIYYCAARRGFVRHTKIKLLDYALTEVRWGQGTQVTVSS
notes: as for B1
B23: anti-SQSTM1 sdAb #26 (Flag-tagged, sdAb library) (VHH)
VHH: QVQLVESGGGSVQAGGSLRLSCTASGGSEYSYSTFSLGWFRQAPGQEREAVAAIASMGGLTYYADSVKGRFTISRDNAKNTVTLQMNNLKPEDTAIYYCAAFPSRLKCTRGCGCRTFNFPALWGQGTQVTVSS
notes: as for B1

What follows are binders tested against T1, HA-tagged SQSTM1 (Homo sapiens (Human)., UniProt Q13501) (assay: proximity ligation; pooled screen (isPLA-seq): Flag-tagged sdAb library co-transfected with HA-tagged SQSTM1 into HEK293T cells, fixed after 48 h, isPLA with anti-HA and anti-Flag antibodies, positive cells sorted by FACS, three rounds, CDR3 sequenced). Conditions: partners not purified.
T1 construct: autophagy receptor SQSTM1, full length; the printed limits 1-440 fit the human protein; also called HA-tagged bait; full length; source: HEK293T, transfected, in fixed cells (screen)

Question: Does B1 bind?
Answer: Result: binds

Question: Does B2 bind?
Answer: Result: binds

Question: Does B3 bind?
Answer: Result: binds

Question: Does B4 bind?
Answer: Result: binds

Question: Does B5 bind?
Answer: Result: binds

Question: Does B6 bind?
Answer: Result: binds

Question: Does B7 bind?
Answer: Result: binds

Question: Does B8 bind?
Answer: Result: binds

Question: Does B9 bind?
Answer: Result: binds

Question: Does B10 bind?
Answer: Result: binds

Question: Does B11 bind?
Answer: Result: binds

Question: Does B12 bind?
Answer: Result: binds

Question: Does B13 bind?
Answer: Result: binds

Question: Does B14 bind?
Answer: Result: binds

Question: Does B15 bind?
Answer: Result: binds

Question: Does B16 bind?
Answer: Result: binds

Question: Does B17 bind?
Answer: Result: binds

Question: Does B18 bind?
Answer: Result: binds

Question: Does B19 bind?
Answer: Result: binds

Question: Does B20 bind?
Answer: Result: binds

Question: Does B21 bind?
Answer: Result: binds

Question: Does B22 bind?
Answer: Result: binds

Question: Does B23 bind?
Answer: Result: binds
